Assays:
TcUGM = target: T1, TcUGM (Trypanosoma cruzi, UniProt Q4E1W2); assay: UV-visible spectrum of purified enzyme; HPLC of released flavin; assay type: binding; details: noncovalently bound, co-purified
T1 construct: gene Tc00.1047053507993.160

[1] = tested on: O=c1ccn([C@@H]2O[C@H](COP(=O)(O)OP(=O)(O)O[C@H]3O[C@@H]([C@H](O)CO)[C@H](O)[C@H]3O)[C@@H](O)[C@H]2O)c(=O)[nH]1; assay: purified protein; details: reduced with 20 mM dithionite, 25 mM Hepes, 125 mM NaCl pH 7.5, 37°C
[2] = tested on: NC(=O)C1=CN([C@@H]2O[C@H](COP(=O)(O)OP(=O)(O)OC[C@H]3O[C@@H](n4cnc5c(N)ncnc54)[C@H](OP(=O)(O)O)[C@@H]3O)[C@@H](O)[C@H]2O)C=CC1; assay: purified protein; details: oxidase activity (kox), air-saturated 50 mM phosphate pH 7.0, room temperature, no UDP-Galp
[3] = tested on: NC(=O)C1=CN([C@@H]2O[C@H](COP(=O)(O)OP(=O)(O)OC[C@H]3O[C@@H](n4cnc5c(N)ncnc54)[C@H](O)[C@@H]3O)[C@@H](O)[C@H]2O)C=CC1; assay: purified protein; details: oxidase activity (kox), air-saturated 50 mM phosphate pH 7.0, room temperature, no UDP-Galp

T1 sequence (Q4E1W2 entry or part of it): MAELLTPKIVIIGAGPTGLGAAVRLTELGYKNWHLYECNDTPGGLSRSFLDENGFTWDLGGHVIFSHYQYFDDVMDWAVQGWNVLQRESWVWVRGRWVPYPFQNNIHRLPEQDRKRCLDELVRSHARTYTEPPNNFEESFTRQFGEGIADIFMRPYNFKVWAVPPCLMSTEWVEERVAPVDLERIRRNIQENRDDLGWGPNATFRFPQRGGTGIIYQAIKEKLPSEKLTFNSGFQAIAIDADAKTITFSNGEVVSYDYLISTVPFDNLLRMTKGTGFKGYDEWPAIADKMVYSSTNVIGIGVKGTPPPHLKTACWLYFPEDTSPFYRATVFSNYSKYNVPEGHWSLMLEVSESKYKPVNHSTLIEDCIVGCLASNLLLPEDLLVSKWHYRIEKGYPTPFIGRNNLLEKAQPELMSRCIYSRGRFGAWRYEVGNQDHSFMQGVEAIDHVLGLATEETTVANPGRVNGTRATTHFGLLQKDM

Row | Compound | UV-visible spectrum of purified enzyme; HPLC of released flavin (TcUGM) | Km [1] [µM] | kcat [1] [s⁻¹] | kcat/Km [1] [M⁻¹ s⁻¹] | Km [2] [µM] | kcat [2] [s⁻¹] | Km [3] [µM] | kcat [3] [s⁻¹]
1 | Cc1cc2nc3c(=O)[nH]c(=O)nc-3n(C[C@H](O)[C@H](O)[C@H](O)COP(=O)(O)OP(=O)(O)OC[C@H]3O[C@@H](n4cnc5c(N)ncnc54)[C@H](O)[C@@H]3O)c2cc1C [FAD] | Recombinant TcUGM contained noncovalently bound flavin cofactor | – | – | – | – | – | – | –
2 | TcUGM (Trypanosoma cruzi strain CL Brener) | – | 140 ± 10 | 13.4 ± 0.3 | 93000 ± 6000 | 15 ± 2 | 0.030 ± 0.002 | 90 ± 20 | 0.015 ± 0.002

Source: article PMC3308961, “Chemical Mechanism of UDP-Galactopyranose Mutase from Trypanosoma cruzi: A Potential Drug Target against Chagas' Disease” (PLoS ONE, 2012)
